Changes are numbered by the printed parent chain. Numbers in names are those of the source.
T1: wild-type KaiC (KaiCWT) (Thermosynechococcus elongatus BP-1 …, UniProt Q79V60 1-518, phosphorylation level of the KaiCWT preparations about 30 % (phosphorylation sites Ser431 and Thr432))
T1 construct: KaiC, Thermosynechococcus elongatus BP-1, wild type, subunit of 518 amino acid residues; Used as hexamer formed with Mg-ATP; also called KaiCWT^6mer
T1 sequence (looked up): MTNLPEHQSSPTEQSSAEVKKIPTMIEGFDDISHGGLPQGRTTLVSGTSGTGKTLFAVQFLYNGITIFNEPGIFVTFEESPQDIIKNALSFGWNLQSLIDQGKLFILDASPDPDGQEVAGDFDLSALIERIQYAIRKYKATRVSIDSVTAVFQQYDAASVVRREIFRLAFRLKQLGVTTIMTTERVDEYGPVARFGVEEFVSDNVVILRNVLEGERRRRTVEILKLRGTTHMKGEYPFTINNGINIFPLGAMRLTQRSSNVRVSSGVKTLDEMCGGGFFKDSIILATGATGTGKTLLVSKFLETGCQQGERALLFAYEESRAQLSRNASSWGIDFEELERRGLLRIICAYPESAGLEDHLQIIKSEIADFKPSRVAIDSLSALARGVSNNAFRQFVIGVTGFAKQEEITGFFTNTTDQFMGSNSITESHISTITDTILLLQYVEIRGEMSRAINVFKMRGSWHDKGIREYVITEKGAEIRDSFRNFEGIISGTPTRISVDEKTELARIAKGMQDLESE

T2: KaiC_(K294H) (Thermosynechococcus elongatus BP-1 …, UniProt Q79V60 1-518, K294H)
T2 construct: KaiC, Thermosynechococcus elongatus BP-1, 518 residues, K294H in Walker's motif A of the C-terminal domain; Used as hexamer formed with Mg-ATP; also called KaiC_(K294H)^6mer
T2 sequence (looked up): T1 sequence (looked up) with K294H

T3: KaiC_(K53H/DD) (Thermosynechococcus elongatus BP-1 …, UniProt Q79V60 1-518, K53H | S431D | T432D)
T3 construct: KaiC, Thermosynechococcus elongatus BP-1, 518 residues, K53H in the N-terminal Walker's motif A plus the DD mutation; Used as monomer (no ATP) and as hexamer (with Mg-ATP); the assay tells which; also called KaiC_(K53H/DD)^1mer; KaiC_(K53H/DD)^6mer
T3 sequence (looked up): T1 sequence (looked up) with K53H, S431D, T432D

T4: KaiC_(K294H/DD) (Thermosynechococcus elongatus BP-1 …, UniProt Q79V60 1-518, K294H | S431D | T432D)
T4 construct: KaiC, Thermosynechococcus elongatus BP-1, 518 residues, K294H in Walker's motif A (C-terminal ATPase motif mutation by the results) plus the DD mutation; Used as monomer (no ATP) and as hexamer (with Mg-ATP); the assay tells which; also called KaiC_(K294H/DD)^1mer; KaiC_(K294H/DD)^6mer
T4 sequence (looked up): T1 sequence (looked up) with K294H, S431D, T432D

B1: KaiC_(S431D&T432D) (KaiCDD) (natural protein, UniProt Q79V60 1-518, looked up)
chain: T1 sequence (looked up) with S431D, T432D
notes: KaiC, Thermosynechococcus elongatus BP-1, subunit of 518 amino acid residues, aspartate at the two phosphorylation sites; Used as monomer (KaiC^1mer, no ATP) and as hexamer (KaiC^6mer; with Mg-ATP, ATP, Mg-AMPPNP, Mg-ATPγS or Mg-ADP-AlFx); the assay tells which; also called KaiCDD^1mer; KaiCDD^6mer
B2: N-terminal domain mutant protein of KaiC, residues 1 to 268 (KaiCN) (domain or fragment, UniProt Q79V60 1-268, looked up)
chain: MTNLPEHQSSPTEQSSAEVKKIPTMIEGFDDISHGGLPQGRTTLVSGTSGTGKTLFAVQFLYNGITIFNEPGIFVTFEESPQDIIKNALSFGWNLQSLIDQGKLFILDASPDPDGQEVAGDFDLSALIERIQYAIRKYKATRVSIDSVTAVFQQYDAASVVRREIFRLAFRLKQLGVTTIMTTERVDEYGPVARFGVEEFVSDNVVILRNVLEGERRRRTVEILKLRGTTHMKGEYPFTINNGINIFPLGAMRLTQRSSNVRVSSGVK
notes: KaiC, Thermosynechococcus elongatus BP-1, N-terminal domain, residues 1-268; Used as monomer (no ATP) and as hexamer (with ATP or Mg-ATP); the assay tells which; also called KaiCN^1mer; KaiCN^6mer
B3: wild-type KaiB (KaiBWT) (natural protein, UniProt Q79V61 1-108, looked up)
chain: MAPLRKTYVLKLYVAGNTPNSVRALKTLNNILEKEFKGVYALKVIDVLKNPQLAEEDKILATPTLAKVLPPPVRRIIGDLSNREKVLIGLDLLYEEIGDQAEDDLGLE
notes: KaiB, Thermosynechococcus elongatus BP-1, wild type, subunit of 108 amino acid residues; also called KaiBWT^4mer; KaiB^4mer
B4: mutant KaiB with a C-terminal deletion of residues 95 to 108 (KaiB1-94) (domain or fragment, UniProt Q79V61 1-94, looked up)
chain: MAPLRKTYVLKLYVAGNTPNSVRALKTLNNILEKEFKGVYALKVIDVLKNPQLAEEDKILATPTLAKVLPPPVRRIIGDLSNREKVLIGLDLLY
notes: KaiB, Thermosynechococcus elongatus BP-1, residues 1-94 (C-terminal residues 95-108 deleted)

Assays:
[1] = target: the molecule itself; assay: native gel or EMSA; 5 μM monomeric KaiC incubated with 1 mM ATP with or without 5 mM MgCl2 at 4 °C; monomer to hexamer
[2] = target: B1; assay: native gel or EMSA; KaiBWT (1 μM) or KaiB1-94 (2 μM) with 1 μM KaiCDD hexamer in reaction buffer (20 mM HEPES-NaOH pH 7.5, 150 mM NaCl) with Mg-ATP at 40 °C, time course; 10 % native gel, CBB, densitometry; details: both partners purified
wild-type KaiC (KaiCWT) = target: T1, wild-type KaiC (KaiCWT); assay: native gel or EMSA; KaiC hexamer (formed with Mg-ATP, 1 μM) with 5 μM KaiB1-94 in the presence of Mg-ATP at 4 °C; native PAGE, complex bands checked by second-dimension SDS-PAGE; details: both partners purified
KaiC_(K294H) = target: T2, KaiC_(K294H); assay: as above; details: both partners purified
[3] = target: B1; assay: native gel or EMSA; monomeric KaiC (5 μM; 1 μM for the concentration series) with KaiB1-94 or 7.5 μM KaiBWT in reaction buffer without ATP, 4 °C, 6 h (KaiC_(C/DD) also at 25 °C); 10 % native gel, CBB, densitometry; details: both partners purified
[4] = target: B2; assay: as above; details: both partners purified
KaiC_(K53H/DD) = target: T3, KaiC_(K53H/DD); assay: as above; details: both partners purified
KaiC_(K294H/DD) = target: T4, KaiC_(K294H/DD); assay: as above; details: both partners purified

Binder: B1
stoichiometry N [1]: 6

Binder: B2
stoichiometry N [1]: 6

Binder: B3
binding result [2]: binds

Binder: B4
binding result (wild-type KaiC (KaiCWT)): binds
binding result (KaiC_(K294H)): binds
t1/2 of complex formation [2]: 1.2 h
EC50 [3]: ~700 nM
t1/2 of complex formation [3]: ~2.5 h
binding result [4]: binds
binding result (KaiC_(K53H/DD)): binds
binding result (KaiC_(K294H/DD)): binds

— PMC3823767, “The ATP-Mediated Regulation of KaiB-KaiC Interaction in the Cyanobacterial Circadian Clock” (PLoS ONE, 2013)
